Source: paper PMC8154130
Like-named read-outs stand apart in the source and are kept apart here.

Assays:
Assay in all cases: EMSA
[1] = molecular target: T1, C-terminal truncated DDX3X (1-582) (Homo sapiens, UniProt O00571)
[2] = molecular target: T1, C-terminal truncated DDX3X (1-582); remark: listed apart in the source
[3] = molecular target: T1, C-terminal truncated DDX3X (1-582); remark: listed apart in the source
[4] = molecular target: T1, C-terminal truncated DDX3X (1-582); remark: listed apart in the source
[5] = molecular target: T1, C-terminal truncated DDX3X (1-582); remark: listed apart in the source

B1: D:E (dsRNA)
RNA 1: CUCAACUCAACCCUUCAUCUCAACUCAACCCUUCAU
RNA 2: AUGAAGGGUUGAGUUGAGAUGAAGGGUUGAGUUGAG
- binding result [1]: no binding

Binder: UUUUUUUUUUUUUUUUUUUUGGUGGUUGUG (ssRNA) [C]
- Kd [2]: 298 ± 31 nM
- Kd [3]: 217 ± 60 nM

B2: A:A (dsRNA)
RNA 1: GGCGGCCGCC
RNA 2: GGCGGCCGCC
- binding result [1]: no binding

B3: B:B (dsRNA)
RNA 1: UUUUUUUUUUUUUUUUUUUUGGCGGCCGCC
RNA 2: B3 RNA 1
- Kd [4]: 114 ± 10 nM
- Kd [5]: 285 ± 18 nM
